According to the supplement of paper PMC9112550, “Optimization of the antimicrobial peptide Bac7 by deep mutational scanning” (BMC Biology, 2022):

system: Escherichia coli TOP10; assay: shrunken log2 fold change of peptide-encoding DNA abundance (4.5 h post-induction vs induction); higher = less antimicrobial activity (less host growth inhibition); conditions: time post-induction: 4.5 h; library: site-saturation at positions 5, 18, 19, 20
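Further: peptides expressed intracellularly from a pBAD plasmid library in pooled LB shake-flask culture, induced with 0.3% L-arabinose, DNA abundance read by NGS, three biological replicates, DESeq2 with apeglm shrinkage.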

Sequence	shrunken log2 fold change
RRIRPRPPRLPRPRPRPVATPRP	0.524
RRIRLRPPRLPRPRPRPITPPRP	0.163
RRIRSRPPRLPRPRPRPDPMPRP	-0.0673
RRIRVRPPRLPRPRPRPAWWPRP	0.156
RRIRNRPPRLPRPRPRPYEFPRP	0.121
RRIRKRPPRLPRPRPRPQMTPRP	0.0443
RRIRGRPPRLPRPRPRPDRYPRP	0.152
RRIRGRPPRLPRPRPRPMLFPRP	0.935
RRIRLRPPRLPRPRPRPAPQPRP	0.609
RRIRKRPPRLPRPRPRPCSQPRP	0.0126
RRIRGRPPRLPRPRPRPYENPRP	-0.0711
RRIRARPPRLPRPRPRPQWYPRP	-0.523
RRIRFRPPRLPRPRPRPQCPPRP	-0.225
RRIRFRPPRLPRPRPRPYAYPRP	-0.0128
RRIRPRPPRLPRPRPRPADDPRP	0.118
RRIRDRPPRLPRPRPRPGIMPRP	0.0786
RRIRPRPPRLPRPRPRPWKTPRP	-0.225
RRIRVRPPRLPRPRPRPWWFPRP	-0.307
RRIRNRPPRLPRPRPRPGEVPRP	-0.121
RRIRKRPPRLPRPRPRPYRPPRP	0.0318
RRIRTRPPRLPRPRPRPPHLPRP	0.0444
RRIRNRPPRLPRPRPRPYWYPRP	-0.177
RRIRVRPPRLPRPRPRPEYCPRP	-0.154
RRIRKRPPRLPRPRPRPHMQPRP	-0.0772
RRIRRRPPRLPRPRPRPQRHPRP	-0.0855

Sequence	shrunken log2 fold change
RRIRFRPPRLPRPRPRPCFKPRP	-0.426
RRIRKRPPRLPRPRPRPVFMPRP	0.138
RRIRCRPPRLPRPRPRPPVTPRP	0.0706
RRIRARPPRLPRPRPRPRMSPRP	-0.186
RRIRQRPPRLPRPRPRPYATPRP	-0.326
RRIRGRPPRLPRPRPRPCINPRP	0.573
RRIRKRPPRLPRPRPRPKPMPRP	0.515
RRIRQRPPRLPRPRPRPPAGPRP	0.866
RRIRWRPPRLPRPRPRPCQKPRP	-0.00776
RRIRSRPPRLPRPRPRPECGPRP	0.646
RRIRHRPPRLPRPRPRPAWMPRP	0.574
RRIRVRPPRLPRPRPRPDMEPRP	0.0238
RRIRTRPPRLPRPRPRPHLYPRP	-0.154
RRIRGRPPRLPRPRPRPSGKPRP	0.367
RRIRQRPPRLPRPRPRPFCEPRP	-0.0314
RRIRTRPPRLPRPRPRPYQEPRP	-0.182
RRIRKRPPRLPRPRPRPLKCPRP	-0.072
RRIRERPPRLPRPRPRPGNWPRP	-0.0108
RRIRRRPPRLPRPRPRPQAYPRP	0.0231
RRIRERPPRLPRPRPRPCDGPRP	0.142
RRIRVRPPRLPRPRPRPCWHPRP	-0.0327
RRIRVRPPRLPRPRPRPCVSPRP	-0.0282
RRIRARPPRLPRPRPRPIMPPRP	0.167
RRIRIRPPRLPRPRPRPLQTPRP	0.0711
RRIRHRPPRLPRPRPRPNFQPRP	-0.161

Sequence	shrunken log2 fold change
RRIRNRPPRLPRPRPRPFMAPRP	-0.513
RRIRHRPPRLPRPRPRPRATPRP	0.554
RRIRARPPRLPRPRPRPFALPRP	0.185
RRIRDRPPRLPRPRPRPQHFPRP	-0.422
RRIRARPPRLPRPRPRPCFHPRP	-0.0446
RRIRPRPPRLPRPRPRPQTVPRP	0.184
RRIRSRPPRLPRPRPRPLVGPRP	0.0355
RRIRDRPPRLPRPRPRPVGPPRP	-0.286
RRIRDRPPRLPRPRPRPDAMPRP	-0.107
RRIRHRPPRLPRPRPRPHVQPRP	-0.128
RRIRNRPPRLPRPRPRPSGIPRP	-0.983
RRIRFRPPRLPRPRPRPMCYPRP	-0.416
RRIRMRPPRLPRPRPRPAWAPRP	0.663
RRIRRRPPRLPRPRPRPHNDPRP	1.99
RRIRHRPPRLPRPRPRPKQMPRP	-0.0152
RRIRCRPPRLPRPRPRPMGYPRP	-0.0984
RRIRWRPPRLPRPRPRPWRMPRP	-0.182
RRIRMRPPRLPRPRPRPWNAPRP	-0.0284
RRIRDRPPRLPRPRPRPMLDPRP	-0.0254
RRIRKRPPRLPRPRPRPFSKPRP	-0.0535
RRIRGRPPRLPRPRPRPKSIPRP	-0.0446
RRIRVRPPRLPRPRPRPCAHPRP	-0.0704
RRIRNRPPRLPRPRPRPKMIPRP	-0.495
RRIRCRPPRLPRPRPRPNDNPRP	-0.692
RRIRPRPPRLPRPRPRPFWKPRP	0.0756
